# B1: TPR t1 (parent)
# chain: GACCAAUCUGCCCUCAGAGCUCGAGAACAUCUUCGGAUGCAGAGGAGGCAGGCUUCGGUGGCGCGAUAGCGCCAACGUCCUCAACCUCCAAUGCAUCCCACCACAUGAUGAUGCCUGAAGAGCCUUGGUUUUUUG
# Variants of: B1
# Assay: polymerase ribozyme fitness, log enrichment relative to wild type (log ratio); higher = more active; in vitro selection for triplet polymerase activity
# Outline: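 Both subunits of a heterodimeric triplet polymerase ribozyme were given their own mutant library, built by PCR and transcribed. Each library was annealed with a biotinylated primer, the partner subunit and triplets, incubated frozen at −7 °C, and its extended constructs gel-excised, captured on streptavidin beads and amplified by RT-PCR, all in one round done in triplicate. Fitness is the logarithm of genotype enrichment relative to wild-type enrichment, with replicates averaged by inverse-variance weighting. That logarithm is base 2, and Illumina-sequenced genotypes needed ≥10 input reads and ≥1 read per output.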
row,Variant,polymerase ribozyme fitness (log ratio)
1,U9G C94A U125G,-1.1
2,U9G C99U,-2.87
3,U9G C104U C124U,1.88
4,U9G G10A U14G A46G G48A A66G C70U,-4.44
5,U9G G10U C104A,-1.09
6,U9G G19A A37U C70U U78A,-4.73
7,U9G G19U A46C C56U,-3.13
8,U9G G19U G45U C114A,1.58
9,U9G G35U,-4.99
10,U9G G35U A111U,-6.59
11,U9G G35U C40A G93C C114U,-5.91
12,U9G G36U G60C U78A C88A,-1.68
13,U9G G39A G57A C114G G117A,-6.32
14,U9G G39U,-0.00423
15,U9G G42A C53G,-2.45
16,U9G G42U G45C U92G U129A,-6.64
17,U9G G42U U55A,-1.32
18,U9G G45U,-0.0404
19,U9G G48U U87G C115G,0.077
20,U9G G51C C56G C62U C80G A119U,-0.0854
21,U9G G52U C80A G110U,-5.82

row,Variant,polymerase ribozyme fitness (log ratio)
1,U9G G57A U112A C123U G128A,-3.19
2,U9G G60A U92G,-2.36
3,U9G G60U C62U C72G,-2.01
4,U9G G61C,-1.59
5,U9G G61U G77A C97G U130C,-5.47
6,U9G G63C,-0.0322
7,U9G G63C G71U C79A,-5.4
8,U9G G69A,-2.25
9,U9G G69C,-2.16
10,U9G G69U C73U U106C,0.373
11,U9G G71U A84G C89G U112G,-7.39
12,U9G G77U C123U,1.93
13,U9G G110C,-4.11
14,U9G U14A,-0.133
15,U9G U14A G52C,-0.345
16,U9G U14A G77U U92G C124U,-3.63
17,U9G U14C G51A C56U C80A,-3.92
18,U9G U21A,-0.191
19,U9G U38G A105U,-2.64
20,U9G U38G C70U A105U,-4.46
21,U9G U38G U55C,-0.21

row,Variant,polymerase ribozyme fitness (log ratio)
1,U9G U54G G58C C73U,-0.715
2,U9G U59G,0.701
3,U9G U87A A100C,-0.443
4,U9G U109A,-3.09
5,G10A A16C A50G A95C,-3.07
6,G10A A16U A66C C88A U92C G120U,-3.94
7,G10A A18U C40U U59G G93A,-2.28
8,G10A A24C A29G C34U G44A C53U C98U A111U,-7.41
9,G10A A26C G36U G45C G51U C70U C79A C98U C123U G127U,-8.21
10,G10A A29G A43U C70U C89A,-4.19
11,G10A A29U,-1.77
12,G10A A37G G61C C85G C86A G113A C124G U130A,-5.79
13,G10A A37U G45U C80A G110C,-7.42
14,G10A A43C C123A U125C,-1.73
15,G10A A74G C97U C101U A105G U130G,-5.19
16,G10A A95C,-0.471
17,G10A C11A G42U G48A G63A A66U A91G C115U,-6.69
18,G10A C11U C40U C72G C104G C124U U133C,-5.5
19,G10A C12G U21C U106G C114G U116A,-6.06
20,G10A C13G G69A U78C,-3.65
21,G10A C13U A27U,-2.05

row,Variant,polymerase ribozyme fitness (log ratio)
1,G10A C13U C64A C70A G113A U125C,-6.12
2,G10A C13U C86G,-0.113
3,G10A C13U G42C A46G C101U G110C,-6.91
4,G10A C13U G45U G117A,-0.718
5,G10A C15A C94A,-3.08
6,G10A C15A G44U C56U A74G,-3.61
7,G10A C20U G65A C70A A91U C104G G120U,-6.74
8,G10A C22U C34U C72A C115G A121C G122U,-8.04
9,G10A C22U G36A A43C C49G U92A C98A G120C U125G,-7.92
10,G10A C28U A46U A83C A84C C124A,-2.98
11,G10A C49A,0.131
12,G10A C49A U78C U116A G120U,-0.56
13,G10A C49G U133A,-0.21
14,G10A C53U G61C G122A G127U U129A,0.0511
15,G10A C56A,0.127
16,G10A C56A G110A,-0.729
17,G10A C62A U96A,-2.02
18,G10A C70G G120U,-1.35
19,G10A C72G G77C A95G C101G,-3.03
20,G10A C73A,-0.58

# Reference: the RNAGym collection of RNA variant scans (doi:10.1073/pnas.2313332121)
